We go through three compounds from patent publication US20050148031A1, “Catalytic efficiency and/or specificity of non-native substrates of enzymes” (priority 2003, published 2005).

For assay [1], the target named is T1, MEK2 phosphorylation of ERK2 (Mus musculus, UniProt P63085, K52R).
T1 construct: purchased New England Biolabs (ERK2 K52R); Upstate Biotechnology (MEK2)
Kind of assay: Kinase assay: MEK2 phosphorylation of ERK2 with docking domain peptides. The format is biochemical, human (MEK2). Here is the method: The following experiment was done to investigate whether docking domain peptides could inhibit MEK2 phosphorylation of ERK2. […] An autoradiogram of a representative experiment is shown (see FIG. 2A). The results were plotted as percent phoshphorylation relative to that observed in the absence of any added peptide (see FIG. 2B). ERK2 phosphorylation was analyzed by SDS-PAGE and quantified. Data are the average of two to four experiments, with triplicate data points in each experiment.
ERK2 and peptide were pre-incubated in buffer for 10 min at 37° C., then returned to ice prior to the addition of ATP and MEK2. Reactions were for 20 min at 30° C. ERK2 phosphorylation was quantified by SDS-PAGE followed by analysis of relative incorporation using a Phosphorlmager™ (Molecular Dynamics, Inc.).

For a further assay, the target named is T2, MEK2 binding to GST-ERK2 (Mus musculus, UniProt P63085).
T2 construct: made in house; host or cells: MEK2 by in vitro translation
Put plainly: GST co-sedimentation (pull-down) assay of 35S-MEK2 binding to GST-ERK2. To be noted: 25 μM or 100 μM peptide. Here is the method:
The purpose of the following experiment is to assess whether MAPK docking domain peptides would inhibit MEK2-binding to GST-ERK2. Radiolabeled (^35S) MEK2 and MEK2Δ4-16 proteins (˜1 pmol) were prepared by in vitro translation, partially purified by ammonium sulfate precipitation, and then incubated with 10 μg of purified GST or GST-ERK2 pre-bound to glutathione-Sepharose beads, in the absence or presence of the specified concentrations of docking domain peptides (Ste7, MEK1, MEK2, Elk-1) or mutant forms of docking domain peptides (scram7, MEK2EEAA, ElkEEG). Bead-bound protein complexes were isolated by sedimentation and resolved on 12% SDS-polyacrylamide gels. An autoradiogram of a representative experiment is illustrated (see FIG. 5A). Gels were analyzed by staining with Coomassie Blue for visualization of the bound GST fusion protein in order to verify equal amounts in each reaction and by autoradiography for visualization of the bound radiolabeled MEK2 or MEK2Δ4-16 to GST or GST-ERK2 in the absence of peptide (hatched bars), or in the presence of 25 μM (light gray bars) or 100 μM peptide (dark gray bars) (see FIG. 5B). Data are the average of three to five experiments; standard error bars are shown.
The constructs and methods used in the GST co-sedimentation (“pull-down”) experiments shown in FIG. 5 have been described elsewhere (Bardwell et al., 2001). […]

The target of assay [2] is T3, MKP-1 dephosphorylation of ERK2 (Mus musculus, UniProt P63085).
T3 construct: purchased Upstate Biotechnology (MKP-1); no vendor is printed for the active ERK2 in this assay
Kind of assay: Phosphatase assay: MKP-1 dephosphorylation of ERK2 with docking domain peptides. The format is biochemical, human (MKP-1). To be noted: western blot with anti-phospho-ERK2. Here is the method: The following experiment was performed to assess whether MAPK-docking domain peptides would inhibit dephosphorylation of ERK2 by MKP-1. Purified, full-length, activated ERK2 (0.5 pmol) was incubated with 0.5 units of purified active MKP-1 for 20 min, in the absence or presence of the specified concentrations of the indicated peptides. ERK2 dephosphoryation was quantified by SDS-PAGE followed by western blotting and immonostaining with anti-phospho-ERK2 (Thr202/Tyr204). The lanes corresponding to ERK2 with no MKP-1 or no added peptide contain 50% of the relative amounts loaded in all other lanes (see FIG. 4A).
Phosphatase reactions (20 μl) for MKP-1 dephosphorylation of ERK2 contained 50 mM Tris-HCl (pH 7.5), 50 mM NaCl, 0.5 pmol active mouse ERK2, 0.5 units active human MKP-1 (Upstate Biotechnology) and the indicated concentration of peptide. Reactions were for 30 min. at 30° C. Reactions were analyzed by SDS-PAGE followed by western transfer and immunostaining with anti-phospho-ERK2 (Thr202/Tyro204) antibody (New England Biolabs).
A general note: Immunoblotting shows a protein as a band on a membrane.

Broadly, the IC50 is the concentration that gives 50% inhibition. Regarding `CC[C@H](C)[C@H](NC(=O)[C@@H]1CCCN1C(=O)[C@@H](NC(=O)[C@@H]1CCCN1C(=O)[C@H](CCCCN)NC(=O)[C@H](CCCCN)NC(=O)[C@H](CCCCN)NC(=O)[C@@H]1CCCN1C(=O)[C@@H](N)CCSC)[C@@H](C)O)C(=O)N[C@@H](CCC(N)=O)C(=O)N[C@@H](CC(C)C)C(=O)N[C@@H](CC(N)=O)C(=O)N1CCC[C@H]1C(=O)N[C@@H](C)C(=O)N1CCC[C@H]1C(=O)N[C@@H](CC(=O)O)C(=O)NCC(=O)O` [MEK1, MPKKKPTPIQLNPAPDG], the IC50 in assay [1] (1 μM inactive ERK2, 0.1 units active MEK2, 20 min, read-out: IC50 for inhibition of MEK2 phosphorylation of ERK2) is roughly 100 µM. Regarding “MLAEEKPVLPAATANPTIAE [MEK2 mutant peptide, MEK2 peptide with mutations in basic and hydrophobic residues]”, the “inhibition of ERK2 phosphorylation by MEK2 (in words)” value in assay [1] (peptide titrated into MEK2 kinase assay) is reported as “did not inhibit”.

As for “KGRKPRDLELPLSPS [Elk-1, docking domain peptide from Elk-1 residues 312-326]”, the “inhibition of MEK2 protein co-sedimentation with GST-ERK2 (in words)” value in the assay with MEK2 binding to GST-ERK2 is recorded as “inhibited”. Besides, the “inhibition of MKP-1 mediated dephosphorylation of phospho-ERK2 (in words)” value in assay [2] is listed as “dose-dependent inhibition”.
